Assay results taken from US20210063414A1, “METHODS FOR PREVENTING AND/OR TREATING BONE LOSS CONDITIONS BY MODULATING IRISIN” (Dana-Farber Cancer Institute, Inc., priority 2018, published 2021).

Biological target: T1, MLO-Y4 cell surface proteins (Mus musculus, UniProt B1AVY7)
T1 construct: endogenous in cells; host or cells: MLO-Y4
T1 sequence (B1AVY7 1-1312): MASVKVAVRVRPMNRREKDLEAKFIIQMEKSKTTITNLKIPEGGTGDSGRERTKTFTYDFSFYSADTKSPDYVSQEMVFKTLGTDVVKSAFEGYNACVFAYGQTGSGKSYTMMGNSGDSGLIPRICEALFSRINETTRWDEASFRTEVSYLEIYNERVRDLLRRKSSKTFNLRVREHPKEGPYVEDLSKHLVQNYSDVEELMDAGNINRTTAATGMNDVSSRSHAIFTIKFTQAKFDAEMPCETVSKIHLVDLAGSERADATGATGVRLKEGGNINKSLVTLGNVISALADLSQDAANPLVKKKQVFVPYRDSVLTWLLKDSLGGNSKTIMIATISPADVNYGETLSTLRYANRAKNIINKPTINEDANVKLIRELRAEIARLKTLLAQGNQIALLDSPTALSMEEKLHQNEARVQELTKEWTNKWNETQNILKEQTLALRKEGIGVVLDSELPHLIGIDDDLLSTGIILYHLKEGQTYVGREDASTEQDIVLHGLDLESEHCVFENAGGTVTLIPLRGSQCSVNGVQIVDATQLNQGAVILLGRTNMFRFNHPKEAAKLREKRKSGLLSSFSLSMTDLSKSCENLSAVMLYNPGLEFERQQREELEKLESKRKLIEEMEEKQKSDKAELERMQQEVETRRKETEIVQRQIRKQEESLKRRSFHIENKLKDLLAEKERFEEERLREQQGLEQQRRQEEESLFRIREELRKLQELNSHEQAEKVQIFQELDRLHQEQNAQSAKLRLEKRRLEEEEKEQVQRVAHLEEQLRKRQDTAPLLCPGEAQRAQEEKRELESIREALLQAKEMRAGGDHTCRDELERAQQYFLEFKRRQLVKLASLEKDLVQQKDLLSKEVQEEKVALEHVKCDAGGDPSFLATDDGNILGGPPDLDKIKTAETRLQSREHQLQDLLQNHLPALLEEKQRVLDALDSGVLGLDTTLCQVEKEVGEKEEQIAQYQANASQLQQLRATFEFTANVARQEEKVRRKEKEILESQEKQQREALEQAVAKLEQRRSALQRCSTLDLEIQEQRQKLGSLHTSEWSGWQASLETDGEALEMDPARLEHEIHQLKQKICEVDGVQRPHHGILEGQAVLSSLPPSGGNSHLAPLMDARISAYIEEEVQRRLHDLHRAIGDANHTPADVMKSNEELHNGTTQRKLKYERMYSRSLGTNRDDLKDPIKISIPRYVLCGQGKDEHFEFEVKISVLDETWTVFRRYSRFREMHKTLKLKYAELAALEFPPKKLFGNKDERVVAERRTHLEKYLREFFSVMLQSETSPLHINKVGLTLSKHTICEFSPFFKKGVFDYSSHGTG
Assay: Crosslinking/co-immunoprecipitation/mass spectrometry (TMT quantitative proteomics) to identify irisin receptors
Type: binding
Conditions: co-precipitated protein Kif16b (KI16B_MOUSE)
Protocol: MLO-Y4 cells were seeded on 30×150 mm type-I collagen coated dishes as described in cell culture experiment. At 60% cell density, medium was switched to FreeStyle™ 293 Expression medium. After 4 hours incubation, the cells were chilled on ice for 10 minutes, followed by treatment of 10 nM his-tag irisin or his-tag adipsin for 20 minutes. The cells were then incubated with 1.5 mM DTSSP for 30 minutes on ice to do cross-linking, after washing with 15 ml cold PBS twice. The cross-linking was quenched by addition of a final concentration of 20 mM Tris-pH 7.5. The cells were then harvested and homogenized in 1 ml RIPA buffer containing proteaseinhibitor cocktailand phosphatase-inhibitor cocktail. Whole-cell lysates were homogenized by 10 times passages through a 22G needle fitted to a 3 ml syringe. Homogenized samples were rotated gently in cold room for 20 minutes followed by 15,000×g centrifugation for 10 minutes. After addition of a final concentration of 10 mM imidazole, supernatants were incubated with 100 μl Ni-NTA agarose for 1 hour. After centrifugation at 500×g for 1 minute, the supernatants were aspirated and 1 ml cold RIPA buffer containing 10 mM imidazole were added to the agarose. After 10 minutes rotation in cold room, the supernatants were aspirated and 1 ml cold RIPA buffer containing 30 mM imidazole were added to the agarose. After repeating the washing 3 times, 0.8 ml RIPA buffer containing 250 mM imidazole was added and the agarose was gently rotated in a cold room for 20 minutes. After centrifugation at 1000×g for 2 minutes, the supernatants were transferred to 1.5 ml tube and incubated with 100 μl 0.2% sodium deoxycholate and 100 μl 10% trichloroacetic acid in ice for 1 hour. After centrifugation at 12,000×g for 10 minutes at 4° C., the supernatants were removed and 1 ml cold acetone was added to the pellets followed by vortexing for 10 seconds. After one more washing with cold acetone, the pellets were dried at 37° C., and 39 μl PBS and 13 μl 4×NuPAGE LDS were added to the pellets with a final concentration of 5 mM DTT. Solubilized proteins were incubated at 65° C. for 20 minutes followed by incubation with a final concentration of 14 mM iodoacetamide for 45 minutes in the dark. 38 μl samples were loaded to 4-12% gradient SDS-PAGE for separation followed by Coomassie Blue staining. The gels were submitted to quantitative proteomics.
For in-gel digestions, gels were stained with Coomassie Blue and were excised into 8 equal segments for control and irisin lanes. Gel pieces were destained and dehydrated with 100% acetonitrile, vacuumed dried, and digested in 25 mM HEPES (pH 8.5) with 500 ng sequencing grade trypsin (Promega) and incubated for an overnight at 37° C. (Shevchenko et al. (1996) Anal. Chem. 68:850-858). Digests were treated with 1% formic acid and purified using C18 Stage-Tips as previously described (Rappsilber et al. (2007) Nat. Protoc. 2:1896-1906). Peptides were eluted with 70% acetonitrile and 1% formic acid, then dried using a speedvac. Isobaric labeling of digested peptides was accomplished using 6-plex tandem mass tag (TMT) reagents (Thermo Fisher Scientific, Rockford, Ill.). Reagents, 5.0 mg, were dissolved in 252 μl acetonitrile (ACN) and 5 μl of the solution was added to the digested peptides dissolved in 25 μl of 200 mM HEPES, pH 8.5. After 1 hour at room temperature, the reaction was quenched by adding 1 μl of 5% hydroxylamine. Labeled peptides were combined and acidified prior to C18 Stage-Tips desalting.
All LC-MS/MS experiments were performed on an Orbitrap Fusion™ Lumos mass spectrometer (Thermo Fisher Scientific, San Jose, Calif., USA) coupled with a Proxeon EASY-nLC™ 1200 LC pump (Thermo Fisher Scientific). Peptides were separated on a 100 μm inner diameter microcapillary column packed with 35 cm of Accucore™ C18 resin (1.8 μm, 100 Å, Thermo Fisher Scientific). […]

B1: irisin: secreted cleaved form of FNDC5; recombinant human/mouse irisin with C-terminal his tag produced in HEK293 cells (protein)
chain: DSPSAPVNVTVRHLKANSAVVSWDVLEDEVVIGFAISQQKKDVRMLRFIQEVNTTTRSCALWDLEEDTEYIVHVQAISIQGQSPASEPVLFKTPREAEKMASKNKDEVTMKE
modifications: left off: small tags and cut ends
notes: secreted cleaved form of FNDC5; recombinant human/mouse irisin with C-terminal his tag produced in HEK293 cells
In the case of B1, the TMT signal-to-noise ratio is reported as 528.649 and the “irisin/adipsin TMT signal-to-noise ratio” value is reported as 0.473.
